Data as given in PMC4323627 (Journal of molecular biology, 2014).
Blank lines part the entries; values can stand above or below the binder they belong to.

Key:
crystal structure = molecular target: the molecule itself; assay: crystal structure
[1] = molecular target: T1, human Shq1 CS domain without 6XHis-tag (hCS) (human, UniProt Q6PI26 1-96, uniformly 15N-labelled); assay: NMR titration
T1 sequence (looked up): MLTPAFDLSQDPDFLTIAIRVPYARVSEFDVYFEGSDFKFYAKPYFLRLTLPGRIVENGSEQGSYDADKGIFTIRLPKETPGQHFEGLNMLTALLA

B1: human Shq1 CS domain P22S with N-terminal 6XHis-tag (his-hCS(P22S)) (domain or fragment)
chain: MAHHHHHHVDDDDKMLTPAFDLSQDPDFLTIAIRVSYARVSEFDVYFEGSDFKFYAKPYFLRLTLPGRIVENGSEQGSYDADKGIFTIRLPKETPGQHFEGLNMLTALLA
binding result (crystal structure): binds

Kd [1]: > 500 µM
Binder: LNVRTTHYTPLA [Dys2S peptide (dyskerin residues 62-73)]
